The numbers were not newly measured in publication PMC3694163, which cites them from elsewhere.

In one data set the target is IGFBP6 (Homo sapiens) (UniProt P24592).
The target of the next data set is IR (Homo sapiens) (UniProt P06213).

Sequence of insulin (P01308 90-110): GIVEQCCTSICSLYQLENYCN
Sequence of IGFBP6 (Homo sapiens) (P24592 28-240): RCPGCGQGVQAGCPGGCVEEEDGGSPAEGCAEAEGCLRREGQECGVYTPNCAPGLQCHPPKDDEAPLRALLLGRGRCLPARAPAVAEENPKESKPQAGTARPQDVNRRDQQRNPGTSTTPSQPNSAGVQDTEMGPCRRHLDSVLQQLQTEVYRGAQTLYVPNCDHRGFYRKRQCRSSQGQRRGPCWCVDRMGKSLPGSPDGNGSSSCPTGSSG

The term Kd denotes a measure of binding affinity in units of concentration. Regarding IGF-II (from UniProt P01344), the Kd with IGFBP6 (Homo sapiens) was 5.7 nM.

As for insulin (from UniProt P01308), the Kd in the data set with IR (Homo sapiens) is 0.1 nM.
